First the molecules themselves.
B1: Phosphothreonine lyase OspF (Shigella flexneri), Q8VSP9 (parent)
chain: MPIKKPCLKLNLDSLNVVRSEIPQMLSANERLKNNFNILYNQIRQYPAYYFKVASNVPTYSDICQSFSVMYQGFQIVNHSGDVFIHACRENPQSKGDFVGDKFHISIAREQVPLAFQILSGLLFSEDSPIDKWKITDMNRVSQQSRVGIGAQFTLYVKSDQECSQYSALLLHKIRQFIMCLESNLLRSKIAPGEYPASDVRPEDWKYVSYRNELRSDRDGSERQEQMLREEPFYRLMIE
partner: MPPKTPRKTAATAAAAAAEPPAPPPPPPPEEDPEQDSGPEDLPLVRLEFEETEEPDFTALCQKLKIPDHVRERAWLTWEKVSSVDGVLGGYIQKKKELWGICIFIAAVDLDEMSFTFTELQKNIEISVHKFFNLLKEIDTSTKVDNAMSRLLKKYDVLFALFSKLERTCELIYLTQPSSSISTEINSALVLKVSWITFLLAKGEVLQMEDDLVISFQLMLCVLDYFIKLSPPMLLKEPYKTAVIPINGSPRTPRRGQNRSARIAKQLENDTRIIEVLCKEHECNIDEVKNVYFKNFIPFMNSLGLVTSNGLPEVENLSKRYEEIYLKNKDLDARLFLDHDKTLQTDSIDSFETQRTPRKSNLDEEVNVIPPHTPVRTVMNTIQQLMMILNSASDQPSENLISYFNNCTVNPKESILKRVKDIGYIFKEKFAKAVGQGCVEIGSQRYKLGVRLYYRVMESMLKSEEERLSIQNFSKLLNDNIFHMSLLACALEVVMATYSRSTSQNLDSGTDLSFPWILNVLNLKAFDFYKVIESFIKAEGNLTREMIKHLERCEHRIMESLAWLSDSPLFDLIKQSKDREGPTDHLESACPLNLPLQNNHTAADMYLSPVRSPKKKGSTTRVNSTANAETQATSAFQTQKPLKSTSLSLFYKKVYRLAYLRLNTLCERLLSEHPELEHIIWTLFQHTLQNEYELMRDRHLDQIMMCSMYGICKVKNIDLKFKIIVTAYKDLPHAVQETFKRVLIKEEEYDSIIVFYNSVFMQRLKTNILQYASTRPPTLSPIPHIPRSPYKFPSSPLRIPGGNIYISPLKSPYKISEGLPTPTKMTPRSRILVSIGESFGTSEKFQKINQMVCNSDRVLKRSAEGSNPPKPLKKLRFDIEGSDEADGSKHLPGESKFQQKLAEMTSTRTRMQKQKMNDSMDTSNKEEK

The assay covers variants of B1. The conditions noted are these: with rb_human RB1, P06400.
Regarding I178R;C180G;E182A, the “effect of a mutation on the interaction” value is “decreasing interaction strength”.

The record behind these values is IntAct's records for PubMed 19017275.
